Measurements taken from PMC5749897.

Key:
[1] = target: E1E2 S432A (H77 alanine-scanning library clone) (hepatitis C virus genotype 1a, strain H77); experiment: flow cytometry on cells
[2] = target: E1E2 Y443A (H77 alanine-scanning library clone) (hepatitis C virus genotype 1a, strain H77); experiment: flow cytometry on cells

B1: monoclonal antibody AR3C (antibody, V domains shown)
VH: VQLLEQSGAEVKKPGSSVKVSCETSGGTFDNYALNWVRQAPGQGLEWIGGVVPLFGTTRNAQKFQGRVTISDDKSTGTGHMELRSLRSEDTAVYYCVRSVTPRYCGGGFCYGEFDYWGQGTLVTVSS
VL: EIELTQSPATLSVSPGERATLSCRASQSVSSNLAWYQQKPGQAPRLLIYGASTRATGIPARFSGSGSGTEFTLTVSRLEPEDSAVYFCQQYYRSPLTFGGGTKVEIK
- % reactivity (of wild type) [1]: 55%
- % reactivity (of wild type) [2]: 15%
